In patent publication US20050287158A1, “The p65 subunit of nf-kb for the radiosensitization of cells” (Georgetown University, priority 2002, published 2005):

What was measured:
[1] = system: endogenous p65 mRNA; assay: Northern blot analysis of endogenous p65 mRNA in clonal cells expressing p65DN; format: cell-based, human; conditions: cell clones expressing p65DN
Description: (§1) Cell culture, Transfection and Clonal Selections: Human head and neck squamous carcinoma cells (SCC-35) were used for the experiments described. These cells have been previously characterized as resistant to ionizing radiation based on clinical and radiobiological parameters (30). Cells were cultured in 10 cm^2 dishes and maintained in Dulbeco modified Eagle's medium supplemented with 10% fetal bovine serum, 2 mML-amino acids. Cells were passaged routinely at 80-90% confluence and checked for mycoplasma contamination at three-month intervals. […] G418 resistant clonal cells were then subcloned and maintained in the complete medium containing G418 (400 μg/ml) as described above. Drug resistant colonies were pooled or subcloned for future studies.
RNA was electrophoresed on a 1% formaldehyde-agarose gel and then transferred to the nitrocellulose membrane, followed by UV cross-linking. The membrane was hybridized with γ-^32P-dATP labeled cDNA probes for 16 h, washed, and autoradiographed.
To investigate the effects of targeting p65 as a means of disrupting NF-κB activation, we transfected radioresistant human squamous carcinoma SCC-35 cells with an expression vector encoding amino acids 1 to 84 of human p65 (p65DN). The resulting G418-resistant colonies were isolated and analyzed for expression of p65DN and endogenous p65. […]

[2] = system: endogenous p65 protein; assay: Immunoblot analysis of endogenous p65 protein in DN/CL6 cells; format: cell-based, human; conditions: DN/CL6 cells (SCC-35 clone expressing p65DN)
Description: as §1
Western blotting: Following exposure to γ-radiation (1-20 Gy) (a ^137Cs J. L. Shepherrd Mark 1 laboratory irradiator) or TNF-α (10 ng/ml) treatment, cell extracts were prepared by using lysis buffer (50 mM Tris-Cl, pH 7.5, 100 mM NaCl, 0.1% NP40, 1 mM PMSF, 10 mg/ml leupeptin, 1 mg/ml aprotinin, 1 mg/ml perpstatin), followed by centrifugation at 12,000×g for 20 minutes. Protein quantities were determined using the BCA protein assay kit (Pierce). Equal amounts of cell extracts were analyzed on 10% SDS-polyacrylamide gels. […]

[3] = system: IκB-α; assay: Immunoblot analysis of IR-induced IκB-α Ser32 phosphorylation/degradation and nuclear p65; format: cell-based, human; conditions: DN/CL6 cells
Description: (§2) Western blotting: Following exposure to γ-radiation (1-20 Gy) (a ^137Cs J. L. Shepherrd Mark 1 laboratory irradiator) or TNF-α (10 ng/ml) treatment, cell extracts were prepared by using lysis buffer (50 mM Tris-Cl, pH 7.5, 100 mM NaCl, 0.1% NP40, 1 mM PMSF, 10 mg/ml leupeptin, 1 mg/ml aprotinin, 1 mg/ml perpstatin), followed by centrifugation at 12,000×g for 20 minutes. Protein quantities were determined using the BCA protein assay kit (Pierce). Equal amounts of cell extracts were analyzed on 10% SDS-polyacrylamide gels. The transblotted membranes were blocked in PBS containing 5% dry milk for 1 h and probed with specific antibodies, followed by washing with PBST. The membrane was then incubated with horse-radish peroxidase conjugated secondary antibodies for 30-60 minutes washed with PBST, and developed by using the ECL-chemiluminescence detection system (Amersham). Equal loading and transfer of proteins among lanes were confirmed by immunoblot analysis with antibodies to β-actin (Amersham) or by staining the membrane with Ponceau S. Other antibodies used in this study include anti-NF-κB(p65), IκB-α caspases-3, (Santa Cruz Biotechnology, Santa Cruz, Calif.) and PARP (Enzyme Synthesis, Dublin, Calif.).
IκB-α binds to both subunits of the p50-p65 heterodimer. We therefore next determined the effect of p65DN expression on IR-induced phosphorylation and subsequent degradation of IκB-αin the cytoplasm. […] This conclusion is consistent with the previous observation that amino acids 1 to 101 of p65 are required for its binding to IκB-α (36). We therefore propose that p65DN interferes with the inhibitory function of IκB-α by binding to this protein in both the cytoplasm and nucleus.

[4] = system: NF-κB; assay: NF-κB luciferase reporter assay (pNF-κB-Luc); format: cell-based, human; conditions: DN/CL6 vs SCC-35 cells; IR 20 Gy or TNF-α 10 ng/ml, 6 h
Description: Luciferase Reporter Assay: Cells were transiently transfected for 16 h with 5 μg/ml of plasmid DNA by using Lipofectin (Gibco-BRL). Following treatment with ionizing radiation (20 Gy) or TNF-α (10 ng/ml), cells were lysed at 6 h in Reporter Lysis Buffer (Promega), and centrifuged for 2 min at 14,000×g.
To determine whether p65DN inhibits the activation of NF-κB, we transfected DN/CL6 cells with the NF-κB-specific luciferase reporter vector pNF-κB-Luc and then examined the effect of IR or TNF-α on luciferase activity. The stimulatory effects of these agents on NF-κB activity were reduced by a factor of 2 to 3 in DN/CL6 cells compared with those apparent in SCC-35 cells (FIG. 2B). Expression of p65DN thus inhibited NF-κB activation.

[5] = system: SCC-35 cells; assay: Radiation (clonogenic) survival assay; format: cell-based, human; conditions: DN/CL6 cells
Description: Radiation survival assay: Clonogenic dose response was determined as previously described (32). Briefly, exponentially growing cells were plated in T-25 flasks and exposed to graded doses of ionizing radiation in a ^137Cs J. L. Shepherrd Mark 1 laboratory irradiator with a dose accuracy of ±5%. Physics support for calibration and quality assurance was provided for all experimental protocols. Colony counts were fit to single hit multitarget (SHMT) and the linear quadratic (L-Q) models (33). Data points were obtained from two to three independent experiments in triplicates for each experiment.
Impaired regulation of NF-κB in certain cell types is associated with intrinsic cellular radiosensitivity (14-16). To examine the role of NF-κB in determining cell sensitivity to radiation, we performed clonogenic survival assays after exposure of SCC-35 and DN/CL6 cells to graded doses of γ-radiation (FIG. 3). The sensitivity of DN/CL6 cells to IR was greater than that of the parental SCC-35 cells. According to the single-hit multitarget model (33), D0 values were determined to be 1.9 Gy (with α=0.16 and β=0.02) for SCC-35 cells and 1.2 Gy (with α=0.11 and β=0.06) for DN/CL6 cells. Because of the potential pitfalls of clonal heterogeneity associated with determination of radiation sensitivity in a clonal cell population, we also performed survival experiments with pooled transfected clones.

[6] = system: SCC-35 cells; assay: Apoptotic index after γ-radiation; format: cell-based, human; conditions: DN/CL6 cells
Excerpt: Apoptotic Index: Adherent and floating cells were collected at various times after exposure to various doses (1-20 Gy) of gamma radiation (a ^137Cs J. L. Shepherd Mark 1laboratory irradiator) and stained with acridine-orange and ethidium bromide (14). About 600 cells (˜100 cells per field) were scored for the aberrant chromosome organizations under flourescence microscopy. The apoptotic cells=(total number of cells with apoptotic nuclei/total number of cells counted)×100. All values represent the mean±SE of the experiments. All experiments were performed more than three times.
Activation of NF-κB contributes to the protection of many cell types from apoptotic cell death induced by DNA-damaging agents. However, under certain conditions and in certain cell types, activation of NF-κB induces apoptosis (37). Given that clonogenic survival analysis provides a measure of all types of cell death, we next determined the effect of p65DN expression on IR-induced apoptosis. IR induced a dose-dependent increase in the percentage of both SCC-35 and DN/CL6 cells characterized as apoptotic 48 h after irradiation (FIG. 4A). However, whereas the maximum proportion of apoptotic cells was 8% (evident at 20 Gy) for SCC-35 cells, confirming that apoptosis is not a major pathway of cell death in these cells, the maximum apoptotic index was 14% for DN/CL6 cells. The baseline apoptotic index for both cell lines was <1%.

[7] = system: PARP; assay: PARP cleavage by immunoblot after γ-radiation; format: cell-based, human; conditions: DN/CL6 cells
Description: as §2, with “Calif.). […]” for “Calif.).”

[8] = molecular target: T1, caspase-3 (Homo sapiens, UniProt P42574); assay: Caspase-3 activity, fluorogenic substrate assay after IR; format: cell-based; conditions: DN/CL6 cells, IR 5 Gy
T1 construct: endogenous in cells; host or cells: lysates of SCC-35 and DN/CL6 cells after 5 Gy of IR
T1 sequence (P42574 29-175 limits assumed): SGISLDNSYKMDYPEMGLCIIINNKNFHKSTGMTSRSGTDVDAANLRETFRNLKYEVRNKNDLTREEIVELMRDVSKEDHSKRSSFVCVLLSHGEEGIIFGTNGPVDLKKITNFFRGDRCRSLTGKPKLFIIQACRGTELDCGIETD
Description: Measurement of caspase activities—The activity of caspases-3 was assayed fluorometrically with specific fluorogenic substrates: MOCAc-Asp-Glu-Val-Asp-Ala-Pro-Lys(DNP)-NH2 (Peptide Institute, Osaka, Japan) (34). Cell extracts (60 μg of protein) were incubated for 1 h at 37° C. with 600 nM substrate in a reaction mixture (500 μl) containing 10 mM Hepes-NaOH (pH 7.4), 40 mM P-glycerophosphate, 50 mM NaCl, 2 mM MgCl2, 5 mM EGTA, 1 mM DTT, 2 mM ATP, 10 mM creatine phosphate, and creatine kinase (50 μg/ml). The fluorescence of the cleaved substrates was measured with a Hitachi F-4500 spectrophotometer at excitation and emission wavelengths, respectively, of 328 and 393 nm for MOCAc-DEVDAPK(DNP)-NH2.
The nuclear enzyme poly(ADP-ribose) polymerase (PARP), which plays an important role in the repair of DNA damage and in maintenance of genomic integrity (38, 39), is specifically cleaved between its NH2-terminal DNA-binding domain and its multifunctional COOH-terminal domain by caspase-3 or a caspase-3—like protease early during the execution phase of apoptosis (40). We therefore examined the effects of p65DN on both the cleavage of PARP and caspase-3 activity. […] Exposure to 5 Gy of γ-radiation induced a substantial increase in PARP cleavage within 48 h in DN/CL6 cells, whereas cleavage of this enzyme remained barely detectable at 72 h in SCC-35 cells (FIG. 4C).

B1: p65DN: dominant negative fragment, amino acids 1 to 84 of human p65 (RelA), expressed from vector pCR3.1 in SCC-35 cells (clone DN/CL6) (protein)
chain: MDELFPLIFPAEPAQASGPYVEIIEQPKQRGMRFRYKCEGRSAGSIPGERSTDTTKTHPTIKINGYTGPGTVRISLVTKDPPHR
Q: Which “amount of endogenous p65 mRNA compared with parental SCC-35 cells” value [1] does the source give for B1 here?
A: reduced

Q: What about the “reduction of the amount of endogenous p65 protein compared with parental SCC-35 cells” value [2] of the same molecule?
A: 75%

Q: And the “amount of p65 in the nucleus after irradiation” value ([3]; IR)?
A: decrease

Q: And the “IR-induced phosphorylation of IκB-α on Ser32” value ([3]; at 3 h after irradiation)?
A: remained markedly increased

Q: What about the “time after irradiation without detectable degradation of IκB-α” value ([3]; parental cells degraded within 1 h) of the same molecule?
A: up to 3 h

Q: What about the “factor of reduction of stimulatory effects of IR or TNF-α on NF-κB (luciferase) activity” value [4] of the same molecule?
A: 2 to 3

Q: And the α ([5]; clonogenic survival fit)?
A: 0.11

Q: What about the β ([5]; clonogenic survival fit) of the same molecule?
A: 0.06

Q: What about the D0 ([5]; single-hit multitarget model, graded γ-radiation doses) of the same molecule?
A: 1.2 Gy

Q: What about the “time at which substantial increase in apoptotic index was apparent” value ([6]; 5 Gy γ-radiation) of the same molecule?
A: 24 h

Q: And the maximum apoptotic index ([6]; 48 h after irradiation, 2-20 Gy)?
A: 14%

Q: What about the baseline apoptotic index ([6]; no irradiation) of the same molecule?
A: < 1%

Q: What about the “time to substantial increase in PARP cleavage” value ([7]; 5 Gy γ-radiation) of the same molecule?
A: ≤ 48 h

Q: And the “γ-radiation dose resulting in PARP cleavage” value ([7]; data not shown)?
A: ≤ 2 Gy

Q: And the “IR-induced activation of caspase-3 compared with SCC-35 cells” value [8]?
A: earlier and more pronounced activation
